Measurements from patent US20250313625A1 (ELPISCIENCE SUZHOU BIOPHARMA, published 2025).

Key:
[1] = target: T1, human LAG3, full length, stably expressed on cells (human, UniProt P18627 23-525); test: FACS on 293F cells stably expressing human LAG3
T1 construct: whole, on cells; also called CHOK1-human LAG3
T1 sequence (looked up): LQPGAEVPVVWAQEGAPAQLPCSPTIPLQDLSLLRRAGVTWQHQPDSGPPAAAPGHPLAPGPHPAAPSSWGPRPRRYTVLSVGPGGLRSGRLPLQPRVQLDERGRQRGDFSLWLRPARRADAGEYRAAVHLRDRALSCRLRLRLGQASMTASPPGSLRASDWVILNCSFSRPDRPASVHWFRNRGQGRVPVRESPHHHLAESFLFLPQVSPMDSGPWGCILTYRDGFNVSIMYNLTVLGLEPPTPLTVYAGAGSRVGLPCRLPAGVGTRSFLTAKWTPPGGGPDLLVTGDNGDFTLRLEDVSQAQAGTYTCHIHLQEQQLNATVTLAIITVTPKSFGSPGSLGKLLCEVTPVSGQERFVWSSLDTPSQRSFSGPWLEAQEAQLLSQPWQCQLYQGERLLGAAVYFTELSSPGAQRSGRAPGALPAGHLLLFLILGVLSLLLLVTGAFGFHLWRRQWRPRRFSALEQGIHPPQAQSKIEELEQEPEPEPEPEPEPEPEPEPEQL
Procedure: Briefly the antibodies were incubated with 2×10⁵ target cells at 4° C. for 1 hour. After washing, fluorescence labeled anti-mouse IgG 2nd antibody (Life Technologies) was added and incubated at 4° C. for 1 hour. Geometric median fluorescence intensity (MFI) was detected and EC₅₀ was calculated using GraphPad Prism9.0.
MFI was detected and EC₅₀ was calculated using GraphPad Prism9.0.

[2] = target: T2, hFc tagged human LAG3 ECD recombinant protein (human, UniProt P18627 23-450); test: competitive ELISA format II: biotin hFc-LAG3 ECD binding to coated His-FGL1
T2 construct: range 23-450; also called biotin labelled hFc tagged human LAG3 ECD; not shown: human IgG Fc tag
T2 sequence (looked up): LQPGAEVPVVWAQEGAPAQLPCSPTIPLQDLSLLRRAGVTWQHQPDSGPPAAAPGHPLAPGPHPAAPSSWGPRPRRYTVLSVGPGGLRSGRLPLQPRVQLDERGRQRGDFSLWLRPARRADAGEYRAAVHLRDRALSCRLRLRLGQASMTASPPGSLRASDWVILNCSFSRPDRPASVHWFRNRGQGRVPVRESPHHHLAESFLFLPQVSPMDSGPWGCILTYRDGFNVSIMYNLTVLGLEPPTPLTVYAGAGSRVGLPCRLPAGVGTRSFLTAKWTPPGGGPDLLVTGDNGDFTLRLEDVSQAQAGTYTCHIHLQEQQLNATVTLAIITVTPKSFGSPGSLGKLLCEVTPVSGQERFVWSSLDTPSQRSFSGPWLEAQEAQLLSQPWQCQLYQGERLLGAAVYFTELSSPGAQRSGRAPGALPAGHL

[3] = target: T3, mFc tagged human LAG3 ECD recombinant protein (human, UniProt P18627 23-450); test: competitive ELISA: mFc tagged human LAG3 ECD binding to plate coated LSECtin ECD
T3 construct: extracellular domain; purchased from Biointron; not shown: mouse IgG Fc (mFc) tag
T3 sequence (looked up): T2 sequence (looked up)
Procedure: Activity of the purified chimeric antibodies to block LAG3 and LSECtin interaction was determined by competitive ELISA assay. […] After washing, HRP labeled anti-mouse Fc 2nd antibody (Sigma) was added and incubated at 37° C. for 1 hour. Then, 100 μl/well of TMB solution (Biotechnology) was added. After incubation for 15 minutes at room temperature, the reaction was stopped by the addition of 50 μl of 1N HCl. OD 450 nm was read.

[4] = target: T4, LAG3 D1 domain extra loop peptide (biotin labelled (site not stated)); test: ELISA format I: biotin labelled LAG3 D1 domain extra loop peptide on plate coated antibody; axis printed as Ab Conc. (nM)
T4 peptide: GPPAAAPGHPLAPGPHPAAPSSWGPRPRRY
Procedure: In ELISA binding assay of format I (FIG. 9A), biotin labelled LAG3 D1 domain extra loop peptide was incubated with ELISA microplate coated anti-LAG3 antibodies. After washing, HRP labeled anti-SA 2nd antibody (Sigma) was added and incubated at 37° C. for 1 hour. Then, 100 μl/well of TMB solution (Biotechnology) was added. After incubation for 15 minutes at room temperature, the reaction was stopped by the addition of 50 μl of 1N HCl. OD 450 nm was read. In ELISA binding assay of format II (FIG. 9B), biotin labelled LAG3 D1 domain extra loop peptide and anti-LAG3 antibodies were co-incubated in ELISA microplate coated with SA. After washing, HRP labeled anti-human Fc 2nd antibody (Sigma) was added and incubated at 37° C. for 1 hour. Then, 100 μl/well of TMB solution (Biotechnology) was added. After incubation for 15 minutes at room temperature, the reaction was stopped by the addition of 50 μl of 1N HCl. OD 450 nm was read.

B1: 023c (antibody, human IgG4, V domains shown)
VH: QIQLVQSGPVLKKPGETVKISCKASGYTFTESPMNWVKQAPGRGFKWMGMIYTDTGEPTYAEEFKGRFAFSLETSASTAYLQINNLKSEDTATYFCVSDYGSILYWYFDVWGTGTTVTVSS
VL: DIVMTQSHKFMSTSVGDRVSITCKASQDVSTAVAWYQQTPGQSPKLLIYSASYRYTGVPDRFTGSGSGTDFTFTISSVQAEDLAVYYCQQHYNSPPTFGAGTKLELK
notes: human IgG4 S228P / kappa chimeric antibody; also called chimeric antibody 023; ES005-023c; not shown: human kappa light chain constant region (pcDNA3.4-hIgGk vector)
[1]
  EC50: 0.26 nM
  TOP MFI: 3430
[2]
  IC50: 1.47 nM
  TOP blocking (%): 86.8%
[3]
  %Blocking at 4 nM: 27.8%
  %Blocking at 20 nM: 94.4%
  %Blocking at 100 nM: 94.8%
[4]
  binding result: no binding (tested: about 300 nM)
